Tests used:
HLA-A*02:01 = HLA-A*02:01 (Homo sapiens, UniProt P04439, D140Y/D185E/D98H/E176V/E277Q/G131W/G231S/I119V/I121R/I166T/I218V/L300P/L318F/N151K/N90K/P208A/P217A/Q86G/Q94H/R138H/R169H/T345S); experiment: MHC binding assay (UV-ligand exchange, beta2m ELISA); conditions: binding to HLA-A*02:01, β2m ELISA
How it was run: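 Exchange yield is an ELISA read-out: complexes diluted 100-fold, captured on streptavidin plates, detected with HRP anti-β2m and TMB at 450 nm. Standard curve from refolded HLA-A*02:01/MLA-001 (15-500 ng/ml); complexes made by UV-triggered displacement of a photolabile ligand by test peptide.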

[1] = tested on: CD8+ T cells of healthy HLA-A*02 donors; experiment: In vitro immunogenicity: in vitro T-cell priming with aAPCs loaded with peptide/MHC complexes and anti-CD28 antibody, pMHC multimer readout; type: cell-based, human; conditions: for Wells positive [%]: HLA-A*02 restricted peptides
Description: In order to obtain information regarding the immunogenicity of the TUMAPs of the present invention, the inventors performed investigations using an in vitro T-cell priming assay based on repeated stimulations of CD8+ T cells with artificial antigen presenting cells (aAPCs) loaded with peptide/MHC complexes and anti-CD28 antibody.
In order to perform in vitro stimulations by artificial antigen presenting cells loaded with peptide-MHC complex (pMHC) and anti-CD28 antibody, the inventors first isolated CD8+ T cells from fresh HLA-A*02 leukapheresis products via positive selection using CD8 microbeads (Miltenyi Biotec, Bergisch-Gladbach, Germany) of healthy donors obtained from the University clinics Mannheim, Germany, after informed consent. PBMCs and isolated CD8+ lymphocytes were incubated in T-cell medium (TCM) until use consisting of RPMI-Glutamax (Invitrogen, Karlsruhe, Germany) supplemented with 10% heat inactivated human AB serum (PAN-Biotech, Aidenbach, Germany), 100 U/ml Penicillin/100 μg/ml Streptomycin (Cambrex, Cologne, Germany), 1 mM sodium pyruvate (CC Pro, Oberdorla, Germany), 20 μg/ml Gentamycin (Cambrex). 2.5 ng/ml IL-7 (PromoCell, Heidelberg, Germany) and 10 U/ml IL-2 (Novartis Pharma, Nürnberg, Germany) were also added to the TCM at this step. Generation of pMHC/anti-CD28 coated beads, T-cell stimulations and readout was performed in a highly defined in vitro system using four different pMHC molecules per stimulation condition and 8 different pMHC molecules per readout condition.
The purified co-stimulatory mouse IgG2a anti human CD28 Ab 9.3 (Jung et al., 1987) was chemically biotinylated using Sulfo-N-hydroxysuccinimidobiotin as recommended by the manufacturer (Perbio, Bonn, Germany). Beads used were 5.6 μm diameter streptavidin coated polystyrene particles (Bangs Laboratories, Illinois, USA).
pMHC used for positive and negative control stimulations were A*0201/MLA-001 (peptide […] (SEQ ID NO. 289) from modified Melan-A/MART-1) and A*0201/DDX5-001 ([…] from DDX5, SEQ ID NO. 290), respectively.
800.000 beads/200 μl were coated in 96-well plates in the presence of 4×12.5 ng different biotin-pMHC, washed and 600 ng biotin anti-CD28 were added subsequently in a volume of 200 μl. Stimulations were initiated in 96-well plates by co-incubating 1×10^6 CD8+ T cells with 2×10^5 washed coated beads in 200 μl TCM supplemented with 5 ng/ml IL-12 (PromoCell) for 3 days at 37° C. Half of the medium was then exchanged by fresh TCM supplemented with 80 U/ml IL-2 and incubating was continued for 4 days at 37° C. This stimulation cycle was performed for a total of three times. For the pMHC multimer readout using 8 different pMHC molecules per condition, a two-dimensional combinatorial coding approach was used as previously described (Andersen et al., 2012) with minor modifications encompassing coupling to 5 different fluorochromes. Finally, multimeric analyses were performed by staining the cells with Live/dead near IR dye (Invitrogen, Karlsruhe, Germany), CD8-FITC antibody clone SK1 (BD, Heidelberg, Germany) and fluorescent pMHC multimers. For analysis, a BD LSRII SORP cytometer equipped with appropriate lasers and filters was used. Peptide specific cells were calculated as percentage of total CD8+ cells. Evaluation of multimeric analysis was done using the FlowJo software (Tree Star, Oregon, USA). In vitro priming of specific multimer+CD8+ lymphocytes was detected by comparing to negative control stimulations.

[2] = percentage of positive wells among evaluable

Substance | Peptide exchange (MHC class I binding score, peptide exchange yield) (HLA-A*02:01) | other results
14 (YTFSGDVQL; listed as Homo sapiens) [compound 14] | +++ (≧50 = +++) | Wells positive [%] [1, 2]: + (<20% = +)
264 (TLHDQVHLL; listed as Homo sapiens) [compound 264] | ++ (≧20% = ++) | Wells positive [%] [1, 2]: + (<20% = +)
101 (SLLEVNEASSV; listed as Homo sapiens) [compound 101] | +++ (≧50 = +++) | Wells positive [%] [1, 2]: + (<20% = +)
288 (SLYKGLLSV; listed as Homo sapiens) [compound 288] | – | in vitro immunogenicity: donors ([1]; percentage of positive donors among evaluable, HLA-A*02 healthy donors, three stimulation cycles): ++++ (>=70% = ++++)
227 (SEMEELPSV; listed as Homo sapiens) [compound 227] | + (≧10% = +) | –
37 (QIVELIEKI; listed as Homo sapiens) [compound 37] | ++ (≧20% = ++) | –
65 (SLSEKSPEV; listed as Homo sapiens) [compound 65] | ++ (≧20% = ++) | –
213 (ILAVDGVLSV; listed as Homo sapiens) [compound 213] | +++ (≧50 = +++) | –
163 (GLEERLYTA; listed as Homo sapiens) [compound 163] | ++ (≧20% = ++) | –
181 (LLWAPTAQA; listed as Homo sapiens) [compound 181] | +++ (≧50 = +++) | –
30 (IITEVITRL; listed as Homo sapiens) [compound 30] | +++ (≧50 = +++) | –
28 (IKVTDPQLLEL; listed as Homo sapiens) [compound 28] | ++ (≧20% = ++) | –
71 (HMSGKLTNV; listed as Homo sapiens) [compound 71] | ++ (≧20% = ++) | –
99 (TLFGIQLTEA; listed as Homo sapiens) [compound 99] | +++ (≧50 = +++) | –
148 (YLILSSHQL; listed as Homo sapiens) [compound 148] | +++ (≧50 = +++) | –
72 (VLSTRVTNV; listed as Homo sapiens) [compound 72] | ++ (≧20% = ++) | –
273 (SLNKQIETV; listed as Homo sapiens) [compound 273] | ++ (≧20% = ++) | –
160 (TLQEWLTEV; listed as Homo sapiens) [compound 160] | +++ (≧50 = +++) | –
188 (VLGEEQEGV; listed as Homo sapiens) [compound 188] | ++ (≧20% = ++) | –
141 (NIDINNNEL; listed as Homo sapiens) [compound 141] | ++ (≧20% = ++) | –
155 (TLDSYLKAV; listed as Homo sapiens) [compound 155] | ++ (≧20% = ++) | –
171 (LLLLDVPTA; listed as Homo sapiens) [compound 171] | ++ (≧20% = ++) | –
287 (KIQEILTQV; listed as Homo sapiens) [compound 287] | – | in vitro immunogenicity: wells ([1]; percentage of positive wells among evaluable, HLA-A*02 healthy donors, three stimulation cycles): + (<20% = +)
185 (TLYQGLPAEV; listed as Homo sapiens) [compound 185] | ++ (≧20% = ++) | –
116 (ALLSSVAEA; listed as Homo sapiens) [compound 116] | ++ (≧20% = ++) | –

Substance | Peptide exchange (MHC class I binding score, peptide exchange yield) (HLA-A*02:01) | other results
33 (TLDRNSLYV; listed as Homo sapiens) [compound 33] | ++ (≧20% = ++) | –
94 (YLDEVAFML; listed as Homo sapiens) [compound 94] | +++ (≧50 = +++) | –
251 (LLWGNLPEI; listed as Homo sapiens) [compound 251] | +++ (≧50 = +++) | –
280 (HLWGHALFL; listed as Homo sapiens) [compound 280] | +++ (≧50 = +++) | –
12 (RLLDPKTIFL; listed as Homo sapiens) [compound 12] | +++ (≧50 = +++) | –
106 (VLLGSVVIFA; listed as Homo sapiens) [compound 106] | ++ (≧20% = ++) | –
283 (ALSELLQQV; listed as Homo sapiens) [compound 283] | +++ (≧50 = +++) | –
137 (KLIYKDLVSV; listed as Homo sapiens) [compound 137] | ++ (≧20% = ++) | –
274 (TLYNPERTITV; listed as Homo sapiens) [compound 274] | +++ (≧50 = +++) | –
142 (LLDAAHASI; listed as Homo sapiens) [compound 142] | ++ (≧20% = ++) | –
129 (KMASKVTQV; listed as Homo sapiens) [compound 129] | ++ (≧20% = ++) | –
109 (ILGSFELQL; listed as Homo sapiens) [compound 109] | +++ (≧50 = +++) | –
54 (YLVPGLVAA; listed as Homo sapiens) [compound 54] | +++ (≧50 = +++) | –
243 (GLAEFQENV; listed as Homo sapiens) [compound 243] | ++ (≧20% = ++) | –
100 (ALQSFEFRV; listed as Homo sapiens) [compound 100] | +++ (≧50 = +++) | –
247 (NLLIDDKGTIKL; listed as Homo sapiens) [compound 247] | ++ (≧20% = ++) | –
238 (HLQEKLQSL; listed as Homo sapiens) [compound 238] | ++ (≧20% = ++) | –
187 (SILKEDPFL; listed as Homo sapiens) [compound 187] | ++ (≧20% = ++) | –
215 (QIADIVTSV; listed as Homo sapiens) [compound 215] | ++ (≧20% = ++) | –
42 (KQMSISTGL; listed as Homo sapiens) [compound 42] | ++ (≧20% = ++) | –
115 (ILHGEVNKV; listed as Homo sapiens) [compound 115] | ++ (≧20% = ++) | –
279 (VLMDEGAVLTL; listed as Homo sapiens) [compound 279] | ++ (≧20% = ++) | –
206 (GLDAFRIFL; listed as Homo sapiens) [compound 206] | ++++ (≧75% = ++++) | –
162 (GLLGNLLTSL; listed as Homo sapiens) [compound 162] | +++ (≧50 = +++) | –

Source: patent US9802997B2, “Peptides and combination of peptides for use in immunotherapy against various tumors” (immatics biotechnologies GmbH, priority 2015, dated 2017)
